From the nanobody polyreactivity screen of Harvey et al. (2022)

Experiment: yeast display, Sf9 membrane polyspecificity reagent, FACS + sequencing; frameworks hold sequencing errors
Outline: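 Nanobodies came from a synthetic yeast display library in Saccharomyces cerevisiae BJ5465, induced with galactose for 36–48 hours and stained for 1 hour at 4 °C with 10% biotinylated, detergent-solubilized Sf9 membrane reagent. Cells were enriched on streptavidin microbeads and then FACS-sorted, with low and high (top ~1%) gates set on anti-HA fluorescence for expression and streptavidin fluorescence for reagent binding. Each polyreactivity label reflects the gate a clone came from. Genes were amplified by colony PCR, sequenced by MiSeq 2 × 250 and filtered by CDR length.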

QVQLVESGGGLVQAGGSLRLSCADSGFTFAANTMGWYRQAPGKARELVADISGRGDRTSYADSVKGRFTISRDNAKNTVYLQMNSLKPEDTAVYYCAVDIYYYSNVHYYYWGQGTQVTVSS
polyreactivity (PSR sort gate): low polyreactivity

QVQLVESGGGLVQAGGSLRLSCADSGFTFSWYAMGWYRQAPGKERELVAAISLRGGSTYYADSVKGRFTISRENAKNTVYFQMNSLKPEDTAVYYCAADSFRWRYKNFYYWGQGTQVTLSS
polyreactivity (PSR sort gate): high polyreactivity

QVQLVESGGGLVQAGGSLRLSCADSGFTFTLYAMGWYRQAPGKERELVAAISGIGGSTYYSDSVKGRFTISSDNAKNTVYLQMNSLKPEDTAVYYCNAVSGDSGDYWGQGTQVNVSS
polyreactivity (PSR sort gate): low polyreactivity

QVQLVESGGGLVQAGGSLRLSCADSGFTFWRYAMGWYRQAPGKERELVAAISWRGSSTYYADSVKGRFTISRDIAKNTVYLQMNSLKPEDTAVYYCARYQSTYDSTYNYWGQGTQVTVSS
polyreactivity (PSR sort gate): high polyreactivity

QVQLVESGGGLVQAGGSLRLSCADSGFTFYVYTMGWYRQAPAKERELVAAITWSGGSTYYADSVKGRFTISRDNAKNTVYLQMNSLKPEDTAVYYCNRVGYWVGHDSWGQGTQVTVSS
polyreactivity (PSR sort gate): high polyreactivity

QVQLVESGGGLVQAGGSLRLSCADSGIIFTRYAMGWYRQAPGKERELVAVITQSGGRTYYADSVKGRFTISRDNAKNTVYLQLNSLKPEDTAVYYCAAAYKPSYFTRAGDYWGQGTQVTVSS
polyreactivity (PSR sort gate): high polyreactivity

QVQLVESGGGLVQAGGSLRLSCADSGITFKYNAMGWYRQAPGKERELVAGITWTGGTTYYADSVKGRFTISRDNAKNTVYLQMNSLNPEDTAVYYCATRNYAVVPSVRREGYYWGQGTQVTVSS
polyreactivity (PSR sort gate): low polyreactivity

QVQLVESGGGLVQAGGSLRLSCADSGITFYRYAMGWYRQAPGKERELVATITSSGGRTYYADSVKGRFTISRDNAKNTVYLQLNSLKPEDTAVYYSAAGKFSYRVYYQFRGGNYWGQGTQVTVSS
polyreactivity (PSR sort gate): high polyreactivity

QVQLVESGGGLVQAGGSLRLSCADSGLIFTAHDMGWYRQAPGKERELVADISKSGSSTYYADSVKGRFTISRDNAKNTVYLQMNSLKPEDTAVYYCNADYLTYFTTFDYWGQGTQVTVSS
polyreactivity (PSR sort gate): low polyreactivity

QVQLVESGGGLVQAGGSLRLSCADSGLTFQRYAMGWYRQAPGKERELVAAISQRGSSTYYADSVKGRFTISRDNAKNTVYLQMNSLKPEDTAVYYCNARPYLFWLSIYDYWGQGTQVTVSS
polyreactivity (PSR sort gate): low polyreactivity

QVQLVESGGGLVQAGGSLRLSCADSGNIFYKYDMGWYRQAPGKERELVATISSDANTKYADSVKGRFTISRDNAKNTVYLHMNSLKPEDTAVYYCNVKDPVVRGALRDPTEYDSWGQGTQVTVSS
polyreactivity (PSR sort gate): low polyreactivity

QVQLVESGGGLVQAGGSLRLSCADSGNTFYANAMGWYRQAPGKEREFVASITRSGGSTYYADSVKGRFTISRDNAKNTVYLQMNSLKPEVTAVYYCAADSWFKYDYWGQGTQVTVSS
polyreactivity (PSR sort gate): low polyreactivity

QVQLVESGGGLVQAGGSLRLSCADSGRIFADNAMGWYRHAPGKERELVAAITWSGGITFYADSVKGRFTISRDNAKKTVYLQMNSLKPEDTAVYYCATYGHRDTPYNYWGQGTQVTVSS
polyreactivity (PSR sort gate): low polyreactivity

QVQLVESGGGLVQAGGSLRLSCADSGRIFAWYAMGWYRQAPGKERELVAVITSSDGSTHYADSVKGRFTISRDNAKNTVYLQMNSLKPEDTAVYYCNADSQRPRRRSNYWGQGTQVTVSS
polyreactivity (PSR sort gate): low polyreactivity

QVQLVESGGGLVQAGGSLRLSCADSGRIFPQYTMGWYRQAPGKERELVAGISYGGVSTYYADSVKGRFTISRDNAKNTVYLHMNSLKPEDTAVYYCARPYGYRGYLRYYWGQGTQVTVSS
polyreactivity (PSR sort gate): high polyreactivity

QVQLVESGGGLVQAGGSLRLSCADSGRIFRSNAMGWYRQAPGKERELVATITSSGGRTYYADSVKGRFTISRDNAKNSVYLQMNRLKPEVSAVYYCNAQQRTRGQKAQWVRDEYWGQGTQVTLSS
polyreactivity (PSR sort gate): low polyreactivity

QVQLVESGGGLVQAGGSLRLSCADSGRIFRYYAMGWYRQAPGKERELVAAISGSGGSTYYADSVKGRFTISRDNSKNTVYLHMNSLKPEDTSVYYCAAAEYLYTLPYGYWGQGTQVTVSS
polyreactivity (PSR sort gate): low polyreactivity

QVQLVESGGGLVQAGGSLRLSCADSGRIFSPNAMGWYRQAPGKETELVASISSAGSTNYADSVKGRFTISRDNAKNTVYLQMNSLKPEDTAFYYCAADYYGYWLSVHAWGAVTFDYWGQGTQVTVSS
polyreactivity (PSR sort gate): low polyreactivity

QVQLVESGGGLVQAGGSLRLSCADSGRIFVHNAMGCYRQAPGKERELVAAISWRATRTYYADSVKGRFTISRDNAKNTVYLQMNSLKPEDTAVYYWAAVTPAYSTSSSSYDYWGQGTQVTVSS
polyreactivity (PSR sort gate): high polyreactivity

QVQLVESGGGLVQAGGSLRLSCADSGRIFVRNAMGWYRPAPGKERELVADSTNGGSTNYADSVKGRFTISRDNAKNTVYLQRNSQKPEDTAVYYCAADTLGVYDGDYWGQGTQVTVSS
polyreactivity (PSR sort gate): low polyreactivity

QVQLVESGGGLVQAGGSLRLSCADSGRIFVYYAMGWYRQAPGKERELVASISYSGASTYYADSVKGRFTISRDNAKNTVYLQMNSLKPEDTAVYYCARDVWNYWDGVFQYYSYDFDYWGQGTQVTVSS
polyreactivity (PSR sort gate): low polyreactivity

QVQLVESGGGLVQAGGSLRLSCADSGRIFWANAMGWYRQAPGKERELVAAITWRGTSTYYADSVKGRFTISRDNAKNTVYLQMNSLKPEDTAVYYCAKVPYLKYGYDYWGQGTQVTVSS
polyreactivity (PSR sort gate): high polyreactivity
